Measured values taken from publication PMC5563082, “Structural Mechanism for Modulation of Synaptic Neuroligin-Neurexin Signaling by MDGA Proteins” (Neuron, 2017).

Legend:
[1] = target: T1, human MDGA1 extracellular domain (MDGA1_(ECTO); Gln19-Lys925) (human, UniProt Q8NFP4-1 19-925); experiment: SPR; biotinylated NL_(ECTO)-Avitag variants captured from dialysed conditioned medium on streptavidin CM5 chip (500 RU; 550 RU for the ΔSite series; 1000 RU for NL3 and NL3 Arg451Cys in the R451C series); β-NRX1_(LNS6)(±4), MDGA1_(ECTO), MDGA2_(ECTO) injected, 15 concentrations, two-fold series from 50 μM; TBS-CTB (10 mM Tris pH 7.4, 150 mM NaCl, 3 mM CaCl2, 0.005% Tween-20, 1.0 g/L BSA); equilibrium analysis, 1:1 …; details: both partners purified
T1 construct: human MAM domain-containing glycosylphosphatidylinositol anchor protein 1, Gln19-Lys925; Not deglycosylated; also called human MDGA1_(ECTO); source: HEK293T, transient transfection, purified (IMAC, SEC)
T1 sequence (looked up): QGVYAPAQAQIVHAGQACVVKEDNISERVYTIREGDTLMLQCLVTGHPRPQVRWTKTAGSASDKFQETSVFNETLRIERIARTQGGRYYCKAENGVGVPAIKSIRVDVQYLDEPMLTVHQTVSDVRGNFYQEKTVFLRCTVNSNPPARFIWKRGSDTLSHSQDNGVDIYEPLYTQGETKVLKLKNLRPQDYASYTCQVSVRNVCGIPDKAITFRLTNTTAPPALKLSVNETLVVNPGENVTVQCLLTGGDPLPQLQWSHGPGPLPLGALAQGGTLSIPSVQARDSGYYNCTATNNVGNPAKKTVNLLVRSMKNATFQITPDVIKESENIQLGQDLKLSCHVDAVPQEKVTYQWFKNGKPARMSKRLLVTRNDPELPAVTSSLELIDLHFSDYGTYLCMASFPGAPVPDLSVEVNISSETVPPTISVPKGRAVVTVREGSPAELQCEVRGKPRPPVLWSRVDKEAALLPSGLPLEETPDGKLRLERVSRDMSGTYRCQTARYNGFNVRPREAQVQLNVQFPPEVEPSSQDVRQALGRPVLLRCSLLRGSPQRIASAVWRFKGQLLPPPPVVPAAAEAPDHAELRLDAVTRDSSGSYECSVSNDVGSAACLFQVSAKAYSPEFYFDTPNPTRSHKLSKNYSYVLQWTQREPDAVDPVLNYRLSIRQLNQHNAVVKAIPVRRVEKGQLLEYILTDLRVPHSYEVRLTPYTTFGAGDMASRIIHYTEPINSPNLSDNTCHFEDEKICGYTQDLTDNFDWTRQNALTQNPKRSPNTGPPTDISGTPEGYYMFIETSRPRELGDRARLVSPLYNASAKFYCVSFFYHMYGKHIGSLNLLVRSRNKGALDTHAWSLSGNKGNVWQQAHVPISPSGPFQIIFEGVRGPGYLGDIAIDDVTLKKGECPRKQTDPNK

[2] = target: T2, human MDGA2 extracellular domain (MDGA2_(ECTO); Gln21-Lys927) (human, UniProt Q7Z553 21-927); experiment: as above; details: both partners purified
T2 construct: human MAM domain-containing glycosylphosphatidylinositol anchor protein 2, Gln21-Lys927; Not deglycosylated; source: HEK293T, transient transfection, purified (IMAC, SEC)
T2 sequence (looked up): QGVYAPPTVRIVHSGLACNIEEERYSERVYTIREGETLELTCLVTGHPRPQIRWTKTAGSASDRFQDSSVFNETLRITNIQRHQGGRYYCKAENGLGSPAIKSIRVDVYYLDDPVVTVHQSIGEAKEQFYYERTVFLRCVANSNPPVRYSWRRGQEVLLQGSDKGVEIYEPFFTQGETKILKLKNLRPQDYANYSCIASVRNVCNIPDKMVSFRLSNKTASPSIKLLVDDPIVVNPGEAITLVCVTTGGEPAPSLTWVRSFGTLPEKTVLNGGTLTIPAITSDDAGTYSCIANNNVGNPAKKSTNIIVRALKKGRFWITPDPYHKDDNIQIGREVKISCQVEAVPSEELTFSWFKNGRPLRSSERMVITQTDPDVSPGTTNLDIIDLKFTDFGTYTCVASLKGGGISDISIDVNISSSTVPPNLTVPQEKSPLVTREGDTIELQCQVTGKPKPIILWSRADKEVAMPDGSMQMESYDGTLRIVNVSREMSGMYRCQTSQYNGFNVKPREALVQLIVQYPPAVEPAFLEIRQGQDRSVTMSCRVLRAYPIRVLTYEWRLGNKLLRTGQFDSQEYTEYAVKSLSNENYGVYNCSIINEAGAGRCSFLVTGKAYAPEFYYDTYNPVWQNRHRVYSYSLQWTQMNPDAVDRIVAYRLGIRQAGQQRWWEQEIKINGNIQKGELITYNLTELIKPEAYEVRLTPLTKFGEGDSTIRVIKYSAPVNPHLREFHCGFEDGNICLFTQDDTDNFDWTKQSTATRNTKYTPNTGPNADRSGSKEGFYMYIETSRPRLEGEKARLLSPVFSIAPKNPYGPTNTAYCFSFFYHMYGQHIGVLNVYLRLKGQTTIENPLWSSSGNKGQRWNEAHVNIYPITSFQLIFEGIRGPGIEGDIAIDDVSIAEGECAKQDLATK

Binder | binding result [1] | binding result [2] | Kd [1] | Kd [2]
human NL5_(ECTO) (NL4(Y); Gln42-Glu602), immobilised for SPR (domain or fragment, biotin on the Avitag (in vivo biotinylation by BirA), human neuroligin-5 (neuroligin-4, Y-linked), Gln42-Glu602; source: HEK293T, co-transfected with ER-resident BirA; dialysed conditioned medium, captured on streptavidin chip) QAQYPVVNTNYGKIQGLRTPLPSEILGPVEQYLGVPYASPPTGERRFQPPESPSSWTGIRNATQFSAVCPQHLDERFLLHDMLPIWFTTSLDTLMTYVQDQNEDCLYLNIYVPMEDDIHEQNSKKPVMVYIHGGSYMEGTGNMIDGSILASYGNVIVITINYRLGILGFLSTGDQAAKGNYGLLDQIQALRWIEENVGAFGGDPKRVTIFGSGAGASCVSLLTLSHYSEGLFQKAIIQSGTALSSWAVNYQPAKYTRILADKVGCNMLDTTDMVECLKNKNYKELIQQTITPATYHIAFGPVIDGDVIPDDPQILMEQGEFLNYDIMLGVNQGEGLKFVDGIVDNEDGVTPNDFDFSVSNFVDNLYGYPEGKDTLRETIKFMYTDWADKENPETRRKTLVALFTDHQWVAPAVATADLHAQYGSPTYFYAFYHHCQSEMKPSWADSAHGDEVPYVFGIPMIGPTELFSCNFSKNDVMLSAVVMTYWTNFAKTGDPNQPVPQDTKFIHTKPNRFEEVAWSKYNPKDQLYLHIGLKPRVRDHYRATKVAFWLELVPHLHNLNE | binds | binds | – | –
human NL3(–A)_(ECTO) (Gln38-Asp636), immobilised for SPR (domain or fragment, UniProt Q9NZ94-1 38-636, looked up, biotin on the Avitag (in vivo biotinylation by BirA), also called NL3_(ECTO); source: HEK293T, co-transfected with ER-resident BirA; dialysed conditioned medium, captured on streptavidin chip) QAPAPTVNTHFGKLRGARVPLPSEILGPVDQYLGVPYAAPPIGEKRFLPPEPPPSWSGIRNATHFPPVCPQNIHTAVPEVMLPVWFTANLDIVATYIQEPNEDCLYLNVYVPTEDDIRDSGAKPVMVYIHGGSYMEGTGNMIDGSILASYGNVIVITLNYRVGVLGFLSTGDQAAKGNYGLLDQIQALRWVSENIAFFGGDPRRITVFGSGIGASCVSLLTLSHHSEGLFQRAIIQSGSALSSWAVNYQPVKYTSLLADKVGCNVLDTVDMVDCLRQKSAKELVEQDIQPARYHVAFGPVIDGDVIPDDPEILMEQGEFLNYDIMLGVNQGEGLKFVEGVVDPEDGVSGTDFDYSVSNFVDNLYGYPEGKDTLRETIKFMYTDWADRDNPETRRKTLVALFTDHQWVEPSVVTADLHARYGSPTYFYAFYHHCQSLMKPAWSDAAHGDEVPYVFGVPMVGPTDLFPCNFSKNDVMLSAVVMTYWTNFAKTGDPNKPVPQDTKFIHTKANRFEEVAWSKYNPRDQLYLHIGLKPRVRDHYRATKVAFWKHLVPHLYNLHD | binds | binds | – | –
human NL3(+A1)_(ECTO), immobilised for SPR (domain or fragment, UniProt Q9NZ94-1 38-636, looked up, biotin on the Avitag (in vivo biotinylation by BirA), source: HEK293T, co-transfected with ER-resident BirA; dialysed conditioned medium, captured on streptavidin chip) QAPAPTVNTHFGKLRGARVPLPSEILGPVDQYLGVPYAAPPIGEKRFLPPEPPPSWSGIRNATHFPPVCPQNIHTAVPEVMLPVWFTANLDIVATYIQEPNEDCLYLNVYVPTEDVKRISKECARKPNKKICRKGDIRDSGAKPVMVYIHGGSYMEGTGNMIDGSILASYGNVIVITLNYRVGVLGFLSTGDQAAKGNYGLLDQIQALRWVSENIAFFGGDPRRITVFGSGIGASCVSLLTLSHHSEGLFQRAIIQSGSALSSWAVNYQPVKYTSLLADKVGCNVLDTVDMVDCLRQKSAKELVEQDIQPARYHVAFGPVIDGDVIPDDPEILMEQGEFLNYDIMLGVNQGEGLKFVEGVVDPEDGVSGTDFDYSVSNFVDNLYGYPEGKDTLRETIKFMYTDWADRDNPETRRKTLVALFTDHQWVEPSVVTADLHARYGSPTYFYAFYHHCQSLMKPAWSDAAHGDEVPYVFGVPMVGPTDLFPCNFSKNDVMLSAVVMTYWTNFAKTGDPNKPVPQDTKFIHTKANRFEEVAWSKYNPRDQLYLHIGLKPRVRDHYRATKVAFWKHLVPHLYNLHD | binds | binds | – | –
human NL2(–A)_(ECTO) (Glu38-His612), immobilised for SPR (domain or fragment, UniProt Q8NFZ4 38-612, looked up, biotin on the Avitag (in vivo biotinylation by BirA), also called NL2_(ECTO); source: HEK293T, co-transfected with ER-resident BirA; dialysed conditioned medium, captured on streptavidin chip) EERFPVVNTAYGRVRGVRRELNNEILGPVVQFLGVPYATPPLGARRFQPPEAPASWPGVRNATTLPPACPQNLHGALPAIMLPVWFTDNLEAAATYVQNQSEDCLYLNLYVPTEDDIRDPGKKPVMLFLHGGSYMEGTGNMFDGSVLAAYGNVIVATLNYRLGVLGFLSTGDQAAKGNYGLLDQIQALRWLSENIAHFGGDPERITIFGSGAGASCVNLLILSHHSEGLFQKAIAQSGTAISSWSVNYQPLKYTRLLAAKVGCDREDSAEAVECLRRKPSRELVDQDVQPARYHIAFGPVVDGDVVPDDPEILMQQGEFLNYDMLIGVNQGEGLKFVEDSAESEDGVSASAFDFTVSNFVDNLYGYPEGKDVLRETIKFMYTDWADRDNGEMRRKTLLALFTDHQWVAPAVATAKLHADYQSPVYFYTFYHHCQAEGRPEWADAAHGDELPYVFGVPMVGATDLFPCNFSKNDVMLSAVVMTYWTNFAKTGDPNQPVPQDTKFIHTKPNRFEEVVWSKFNSKEKQYLHIGLKPRVRDNYRANKVAFWLELVPHLHNLH | – | – | ~2000 nM | ~1000 nM
human NL2(+A)_(ECTO), immobilised for SPR (domain or fragment, UniProt Q8NFZ4 38-612, looked up, biotin on the Avitag (in vivo biotinylation by BirA), source: HEK293T, co-transfected with ER-resident BirA; dialysed conditioned medium, captured on streptavidin chip) EERFPVVNTAYGRVRGVRRELNNEILGPVVQFLGVPYATPPLGARRFQPPEAPASWPGVRNATTLPPACPQNLHGALPAIMLPVWFTDNLEAAATYVQNQSEDCLYLNLYVPTEDGPLTKKRDEATLNPPDTDIRDPGKKPVMLFLHGGSYMEGTGNMFDGSVLAAYGNVIVATLNYRLGVLGFLSTGDQAAKGNYGLLDQIQALRWLSENIAHFGGDPERITIFGSGAGASCVNLLILSHHSEGLFQKAIAQSGTAISSWSVNYQPLKYTRLLAAKVGCDREDSAEAVECLRRKPSRELVDQDVQPARYHIAFGPVVDGDVVPDDPEILMQQGEFLNYDMLIGVNQGEGLKFVEDSAESEDGVSASAFDFTVSNFVDNLYGYPEGKDVLRETIKFMYTDWADRDNGEMRRKTLLALFTDHQWVAPAVATAKLHADYQSPVYFYTFYHHCQAEGRPEWADAAHGDELPYVFGVPMVGATDLFPCNFSKNDVMLSAVVMTYWTNFAKTGDPNQPVPQDTKFIHTKPNRFEEVVWSKFNSKEKQYLHIGLKPRVRDNYRANKVAFWLELVPHLHNLH | binds | binds | – | –
human NL4_(ECTO) (NL4(X); Gln42-Glu602), immobilised for SPR (domain or fragment, biotin on the Avitag (in vivo biotinylation by BirA), human neuroligin-4 (X-linked), Gln42-Glu602; source: HEK293T, co-transfected with ER-resident BirA; dialysed conditioned medium, captured on streptavidin chip) QAQYPVVNTNYGKIRGLRTPLPNEILGPVEQYLGVPYASPPTGERRFQPPEPPSSWTGIRNTTQFAAVCPQHLDERSLLHDMLPIWFTANLDTLMTYVQDQNEDCLYLNIYVPTEDDIHDQNSKKPVMVYIHGGSYMEGTGNMIDGSILASYGNVIVITINYRLGILGFLSTGDQAAKGNYGLLDQIQALRWIEENVGAFGGDPKRVTIFGSGAGASCVSLLTLSHYSEGLFQKAIIQSGTALSSWAVNYQPAKYTRILADKVGCNMLDTTDMVECLRNKNYKELIQQTITPATYHIAFGPVIDGDVIPDDPQILMEQGEFLNYDIMLGVNQGEGLKFVDGIVDNEDGVTPNDFDFSVSNFVDNLYGYPEGKDTLRETIKFMYTDWADKENPETRRKTLVALFTDHQWVAPAVATADLHAQYGSPTYFYAFYHHCQSEMKPSWADSAHGDEVPYVFGIPMIGPTELFSCNFSKNDVMLSAVVMTYWTNFAKTGDPNQPVPQDTKFIHTKPNRFEEVAWSKYNPKDQLYLHIGLKPRVRDHYRATKVAFWLELVPHLHNLNE | binds | binds | – | –
